Test results as given in the supplement of paper PMC9732359.
± gives the uncertainty stated by the source.

Assay: protein stability index of a GFP-peptide fusion (yeast GPS) (PSI 1-4); higher = more stable; sorted into four equal gates, so the index is relative within each strain
In short: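 Yeast carrying a pooled library were grown to mid-log phase in leucine-free medium. Each library plasmid expresses Cherry and has a tiled 17-residue yeast protein peptide fused downstream of GFP. Cells were sorted into four equal gates by GFP/Cherry ratio, and plasmids from each gate were PCR-amplified, Illumina-sequenced and assigned to strains by barcode. Summing, across gates, the read frequency times the gate number gave each peptide's protein stability index.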

Sequence | protein stability index (doa10∆) | protein stability index (pdr5∆) | protein stability index (san1∆) | protein stability index (ubr1∆)
KARAKKTKKEKGPNEEE [RPN2] | 3.45 ± 0.22 | 3.37 ± 0.15 | 3.43 ± 0.064 | 3.15 ± 0.18
DVNEKIRFRIEREVFVD [RPC25] | 1.81 ± 0.074 | 1.29 ± 0.066 | 1.56 ± 0.13 | 1.2 ± 0.044
NPNNVNVQTQYREAPVI [RET1] | 2.5 ± 0.085 | 2.73 ± 0.045 | 2.48 ± 0.1 | 2.63 ± 0.057
STTASGTTATGTGLFGQ [YGR119C/NUP57] | 3.18 ± 0.074 | 3.35 ± 0.067 | 3.27 ± 0.068 | 3.43 ± 0.055
NNSANNNAHSSDLGTVV [YMR153W/NUP53] | 3.03 ± 0.15 | 2.62 ± 0.1 | 2.7 ± 0.091 | 2.28 ± 0.044
KLKFFPSGEALISSSQD [RPN14] | 2.92 ± 0.23 | – | – | –
PITNKERSLAVKYINFG [RPC31] | 3.02 ± 0.14 | 3.11 ± 0.16 | 2.65 ± 0.084 | 2.48 ± 0.18
MNLKKELQGYIELSVPD [SRB5] | 2.6 ± 0.21 | 3.26 ± 0.14 | 3.15 ± 0.075 | 2.83 ± 0.1
VFQDNVYKIYNHVMPLK [SIN4] | 1.65 ± 0.07 | 1.69 ± 0.096 | 1.69 ± 0.098 | 1.62 ± 0.049
NNNSNNIMSASGGLFGN [YGL172W/NUP49] | 2.97 ± 0.041 | 3.02 ± 0.041 | 3.13 ± 0.051 | 3.2 ± 0.035
KTNKISILKRHSFAVLL [NUT1] | 2.03 ± 0.11 | 2.4 ± 0.099 | 2.19 ± 0.12 | 1.99 ± 0.075
RAYLSHSNRCIVFSKKE [CSN12] | 1.41 ± 0.075 | 1.56 ± 0.062 | 1.13 ± 0.15 | 1.15 ± 0.036
AHTAGRYANKRFRKAQC [RPS5] | 2.29 ± 0.22 | 2.92 ± 0.18 | – | –
QSKEILKGLLQELKADS [SRP72] | 2.36 ± 0.17 | 2.13 ± 0.27 | 2.75 ± 0.096 | 2.6 ± 0.11
QKLMQLVVLTDVVERLH [RGR1] | 2.29 ± 0.072 | 2.38 ± 0.049 | 2.23 ± 0.091 | 2.3 ± 0.035
PQVKIREASKDNVDFIL [RPB3] | 2.55 ± 0.065 | 2.12 ± 0.033 | 2.88 ± 0.073 | 1.77 ± 0.037
NPRKRKASVLEISPQDS [GAL11] | – | – | – | 3.1 ± 0.13
ERIINVGVIGPLHSGKT [SNU114] | 2.87 ± 0.12 | 2.57 ± 0.11 | – | 2.94 ± 0.09
YSLLLASKGIDRLSLQD [ECM29] | 2.45 ± 0.2 | 3.23 ± 0.16 | – | 2.83 ± 0.11

Sequence | protein stability index (doa10∆) | protein stability index (pdr5∆) | protein stability index (san1∆) | protein stability index (ubr1∆)
KGSVAAKTFLEKRWNDE [PRE8] | 2.38 ± 0.18 | 1.28 ± 0.17 | – | –
AQQLRNQQQQQQQQQQQ [GAL11] | 2.98 ± 0.095 | 2.92 ± 0.11 | 2.92 ± 0.094 | 3.04 ± 0.065
KRRFDPSSSDSNGPRAA [RRP6] | 3.25 ± 0.073 | 3.31 ± 0.089 | 3.21 ± 0.048 | 3.33 ± 0.052
NDILVLMESEREARRLR [RPS28A] | 1.56 ± 0.12 | 2.94 ± 0.079 | 2.08 ± 0.16 | 2.7 ± 0.097
DDFEVNVASLVRVQFQF [GRR1] | 2.57 ± 0.059 | 1.77 ± 0.089 | 1.78 ± 0.18 | 1.5 ± 0.089
NFENDNENNSNGGEDTS [REC8] | 2.93 ± 0.2 | 2.64 ± 0.27 | 2.65 ± 0.16 | 2.81 ± 0.16
YITNADDSTKFQLVNDV [SIR3] | 3.01 ± 0.11 | 3.18 ± 0.1 | 2.94 ± 0.092 | 3.24 ± 0.071
PIEVDEELLQLFLNNFV [IRR1] | 2.93 ± 0.063 | 2.86 ± 0.071 | 2.97 ± 0.054 | 3.18 ± 0.058
QSDFCLSWCPSRFSPEK [YGL100W/SEH1] | 3.09 ± 0.11 | 3.02 ± 0.19 | – | –
NIKHKHTSIRETLENGE [SMC2] | 1.46 ± 0.12 | 1.74 ± 0.21 | 1.54 ± 0.2 | 1.68 ± 0.24
GRNNGKKLKAVRIIKHT [RPS5] | 2.06 ± 0.12 | 2.25 ± 0.08 | 1.79 ± 0.09 | 2.81 ± 0.082
MSAQKAPKWYPSEDVAA [RPL6A] | 2.03 ± 0.12 | 2.35 ± 0.13 | 1.57 ± 0.27 | 2.1 ± 0.071
VSLLKKNWQNVGSLVVK [RPL1A] | 1.15 ± 0.049 | 1.39 ± 0.056 | 1.36 ± 0.12 | 1.32 ± 0.053
IPSAAFNFFEPIKEAKI [YMR129W/POM152] | 1.98 ± 0.039 | 2.27 ± 0.037 | 2.15 ± 0.044 | 2.44 ± 0.025
DFAQKEINGDDDEDEDD [PRE10] | 3.09 ± 0.11 | 3.19 ± 0.071 | 3.22 ± 0.082 | 3.28 ± 0.063
FRSYMDQEKKYGMSITE [RPB2] | 1.69 ± 0.054 | 2.43 ± 0.063 | 2.89 ± 0.065 | 2.75 ± 0.032
VSVPVSGQKTNRQVMHK [SIR3] | 2.58 ± 0.13 | 3.27 ± 0.14 | 3.05 ± 0.13 | 2.86 ± 0.17
GHIVSLELTTGATYRGK [SMD3] | 1.98 ± 0.049 | 2.03 ± 0.049 | 2.12 ± 0.085 | 2.34 ± 0.053
YPVLRKLYKKIAKFERS [YIL149C/MLP2] | 2.42 ± 0.079 | 1.99 ± 0.06 | 2.56 ± 0.071 | 2.88 ± 0.039

Sequence | protein stability index (doa10∆) | protein stability index (pdr5∆) | protein stability index (san1∆) | protein stability index (ubr1∆)
RAKPVTNSSILLGKILP [RRP6] | 2.2 ± 0.074 | 2.14 ± 0.077 | 2.27 ± 0.12 | 2.39 ± 0.13
LKWKKGIRGKLVTIEGA [SMC1] | – | 3.31 ± 0.24 | 3.31 ± 0.12 | –
ALQDKEITSVLSNLHES [SNF12] | 2.93 ± 0.083 | 3.43 ± 0.13 | 2.94 ± 0.064 | 3.13 ± 0.056
LEVVQYIEDGRNPDIYT [NUT2] | 3.14 ± 0.059 | 3.25 ± 0.049 | 3.15 ± 0.042 | 3.27 ± 0.039
ERELISNIEQTESLRVE [YIL149C/MLP2] | 3.34 ± 0.063 | 3.47 ± 0.078 | 3.18 ± 0.041 | 3.37 ± 0.07
MNERDWRILKEDYAIVT [PRP28] | 3.42 ± 0.22 | 3.16 ± 0.23 | – | –
SLDQGDAEEDSQVENRV [SMC4] | – | – | – | 2.83 ± 0.17
ADYNGALLRVTKSKNKT [POP4] | 2.61 ± 0.066 | 2.14 ± 0.058 | 2.42 ± 0.077 | 2.36 ± 0.053
MLQMKGKLLRNYTQNID [SIR2] | 2.91 ± 0.076 | 2.36 ± 0.11 | 2.78 ± 0.086 | 2.02 ± 0.058
DNNITEMLEENFPEASK [YCG1] | 2.48 ± 0.097 | 2.22 ± 0.11 | 2.59 ± 0.09 | 2.74 ± 0.052
AKYETSILEHSGIRLIE [FAS2] | 3.32 ± 0.062 | 3.3 ± 0.063 | 3.09 ± 0.051 | 3.37 ± 0.052
NTCYLNATLQALYRVND [UBP6] | 2.25 ± 0.07 | 2.59 ± 0.069 | 2.69 ± 0.063 | 2.5 ± 0.055
EILTSVDVLGTHSQTGT [SIR4] | 2.93 ± 0.069 | 2.76 ± 0.063 | 2.87 ± 0.067 | 3.07 ± 0.037
VPKSIAKTLTYPEVVTP [RPO21] | 2.51 ± 0.05 | 2.76 ± 0.044 | 2.39 ± 0.039 | 2.62 ± 0.047
HCEDKDYKTAFSYFFES [RPN6] | 2.77 ± 0.081 | 2.83 ± 0.071 | 2.53 ± 0.076 | 3.02 ± 0.055
DEFPELKEPVEDIIKRT [NUT2] | 3.5 ± 0.066 | 3.36 ± 0.07 | 3.31 ± 0.045 | 3.36 ± 0.048
SALCILKEQELVLYDAE [BRR2] | 2.47 ± 0.16 | 2.72 ± 0.12 | 2.25 ± 0.11 | 2.52 ± 0.1
HQHIGKASTISRGAVSG [RPL2A] | 2.55 ± 0.043 | 2.39 ± 0.059 | 2.83 ± 0.055 | 3.12 ± 0.05
